US5882644A, “Monoclonal antibodies specific for the platelet derived growth factor β receptor and methods of use thereof” (Protein Design Labs, Inc., priority 1996, dated 1999)
Entries after “also recorded” stand apart in the source; their conditions may differ.

Tests used:
[1] = tested on: PDGF-R β expressed on the cell membrane; test: Flow cytometry binding to CHO PDGF-R β transfectant cells; design: species or system human; details: 0.1-1 μg/ml antibody; CHO PDGF-R β transfectants vs untransfected CHO
Protocol: The cells were washed once in cold PBS and resuspended in 50 μl of PBS containing 10 μg/ml FITC-conjugated goat anti-mouse IgG and incubated for 30 min. After another wash, the cells were fixed by resuspension in 0.25 ml of paraformaldehyde in PBS, and analyzed for fluorescence by flow cytometry on a FACScan (Becton Dickinson).

PDGF-R β [2] = test: Competitive binding with 125I-PDGF BB on transfectant cells expressing PDGF-R β; design: species or system human; details: 4° C.
Protocol: To determine the ability of muM4TS.11 and muM4TS.22 to block binding of PDGF BB to PDGF-R β, the following competitive binding experiments were performed. Transfectant cells expressing PDGF-R β were harvested, washed twice with cold DMEM, and resuspended at 10^6 cells/ml in DMEM. The assay was carried out in triplicate by incubating 100 μl of the cell suspension with either: 1) no antibody (to determine total binding); 2) varying concentrations of antibody; or 3) 100 ng cold PDGF BB (to saturate specific binding sites and determine non-specific binding) for 15 minutes at 4° C. Each sample received 1.0 ng ^125 I-labeled PDGF BB, and was incubated for an additional 60 min at 4° C. Unbound ^125 I-labeled PDGF BB was separated from that bound to the cell by layering the sample over a mixture of 80% dibutylphthalate, 20% olive oil in a microfuge tube, and microfuging briefly to pellet the cells through the oil mixture. The tubes were placed in dry ice to freeze the contents, the tip of the tube containing the cell pellet was cut off into a vial, and radioactivity was determined in a gamma counter.
To assess the ability of HuM4TS.22 to block the binding of PDGF BB to its receptor, competitive binding experiments of HuM4TS.22 with ^125 I-PDGF BB were performed according to the method described in Example 3.
To assess the ability of muM4TS.11 and HuM4TS.11 to block the binding of PDGF BB to the PDGF β receptor, competitive binding experiments of these antibodies with ^125 I-PDGF BB were performed according to the method described in Example 3.

PDGF-R β [3] = test: Competition with 125I-labeled murine antibody tracer on Sp2/0 PDGF-R β transfectant cells; format: binding, human; details: Sp2/0 PDGF-R β transfectants; for binding affinity Ka: calculated from competitive binding data
Protocol: To assess the ability of HuM4TS.22 to compete with muM4TS.22 for receptor binding, increasing concentrations of the two antibodies were respectively incubated on ice for one hour with Sp2/0 PDGF-R β transfectant cells and a fixed amount of tracer ^125 I-labeled muAb. The sample tubes were processed as in the blocking experiment just described.
To assess the ability of HuM4TS.11 to compete with the muAb for receptor binding, increasing concentrations of the two antibodies were respectively incubated on ice for one hour with Sp2/0 PDGF-R β transfectant cells and a fixed amount of tracer ^125 I-labeled M4TS.11. The sample tubes were processed as in the blocking experiment described. […] The binding affinities calculated from the data were: Ka =5×10^8 M^-1 for the muAb and 3×10^7 M^-1 for the HuAb.

[4] = tested on: CHO transfectant cell line expressing PDGF-R β (CHO C4); test: Inhibition of PDGF BB-induced proliferation (3H-thymidine) of CHO C4 cells; format: cell-based, Chinese hamster; details: for inhibition of PDGF BB-induced proliferation: 50 ng/ml PDGF BB, sufficient antibody concentration
Protocol: To determine the ability of muM4TS.11 and muM4TS.22 to block PDGF-mediated proliferation, a CHO transfectant cell line expressing PDGF-R β (CHO C4) was generated, as described above. Proliferation of this line, as measured by incorporation of ^3 H-thymidine by DNA synthesis, is stimulated several-fold by PDGF BB. The CHO PDGF-R β transfectants were plated in a 96-well tissue culture plate at about 50,000 cells/well in Ham's F-12+10% FCS and incubated for 1-2 days. The medium was removed, and the cells were washed once with serum-free medium (Ham's F-12+1 mg/ml BSA) and incubated in this media for 1-2 days to put them in a quiescent state. The appropriate amount of antibody in serum-free medium was added, and after 1-3 hours, 50 ng/ml PDGF BB was added. After overnight incubation, 1 μCi ^3 H-thymidine was added, and after a final 4 hour incubation, the cells were harvested using a PHD cell harvester (Cambridge Technology) and analyzed with a scintillation counter.

[5] = tested on: human primary fibroblast cell line AG1523B; test: Inhibition of PDGF BB-stimulated proliferation of AG1523B fibroblasts; format: cell-based; details: 300 ng/ml PDGF BB
[6] = tested on: PDGF-R β deletion fusion proteins; test: ELISA epitope mapping with PDGF-R β deletion fusion proteins; format: binding, human; details: for binding to protein D5 (fifth domain only): separate experiment
Excerpt: To localize the binding sites of the M4TS antibodies on the PDGF-R, a series of PDGF-R β deletion mutants, each consisting of one or more adjacent domains of the extracellular portion of the receptor, was constructed by standard methods including PCR. The deletion constructs were each cloned into an expression plasmid (FIG. 13A) where they were fused to the constant region of the human lambda-1 immunoglobulin light chain, to facilitate detection in ELISA. The constructs were as follows (see FIG. 13B):
These PDGF-R β deletion fusion proteins were transiently expressed, by transfecting 10 μg of the respective expression plasmids into approximately 10^7 S194 mouse myeloma cells (ATCC TIB 19) using the DEAE-dextran method in accordance with the method described by Queen et al. (1984) Mol. Cell. Biol. 4:1042. After the transfected cells had died (4-5 days) and been removed by centrifugation, the culture supernatants containing the PDGF-R β deletion proteins were used in ELISA assays, 100 μl/well. First, the relative levels of the various PDGF-R β deletion proteins were measured in an ELISA where the plate was coated with goat anti-human lambda antibody (Tago) and the proteins detected with HRP-conjugated goat anti-human lambda antibody. […] To determine the ability of the antibodies to bind to each deletion protein, an ELISA was performed in which goat anti-human lambda antibody was used to coat the plate, followed by the cell supernatant and then 0.1 μg of the appropriate antibody, and then bound antibody detected with HRP-conjugated goat-anti-mouse Ig or goat-anti-human Ig antibody as appropriate (Tago). As a positive control, purified soluble PDGF-R β (Example 1) was coated directly on certain wells of the plate (denoted D1-5 in FIG. 14).

PDGF-R β [7] = test: Flow cytometry (FACS) staining of Sp2/0 transfectant cells expressing PDGF-R β; format: binding, human; details: 50 ng antibody; vs untransfected Sp2/0 cells
Protocol: The cells were washed with cold PBS, incubated for an additional 30 minutes with FITC-labeled goat-anti-human Ig (Tago Immunologicals) and analyzed by flow cytometry (FACS).
The cells were washed with cold PBS, incubated for an additional 30 minutes with FITC-labeled goat-anti-human Ig (Tago Immunologicals) and analyzed by flow cytometry (FACS). […] Neither an irrelevant control antibody nor the FITC-labeled goat antibody alone stained either cell type.

| binding to deletion proteins containing only first through second domains ([6]; 0.1 μg antibody) | binding to protein D1-3 ([6]; 0.1 μg antibody) | binding to protein D3 (third domain only) ([6]; 0.1 μg antibody) | binding to deletion proteins containing only first through third domains ([6]; 0.1 μg antibody) | binding to protein D1-4 ([6]; 0.1 μg antibody) | Molecule | specific binding to membrane PDGF-R β by flow cytometry [1] | blocking of 125I-PDGF BB binding to PDGF-R β (PDGF-R β [2]) | competition with labeled murine antibody for receptor binding / binding affinity, in words (PDGF-R β [3]) | binding affinity Ka (PDGF-R β [3]) | inhibition of PDGF BB-induced proliferation [4] | inhibition of stimulation of proliferation by PDGF BB [5] | binding to protein D5 (fifth domain only) [6] | FACS staining of Sp2/0 PDGF-R β transfectant cells (PDGF-R β [7]) | inhibition of PDGF-mediated proliferation compared with another antibody [4] |
| --- | --- | --- | --- | --- | --- | --- | --- | --- | --- | --- | --- | --- | --- | --- |
| do not bind | do bind to protein D1-3 | bind to the protein D3 | – | – | muM4TS.22: murine monoclonal antibody to PDGF-R β, variable regions SEQ ID NOS:2 and 4; epitope in third extracellular domain (antibody, V domains shown) VL: MRVLAELLGLLLFCFLGVRCDIQMNQSPSSLSASLGDTITITCHASQNINVWLSWYQRKPGNIPKLLIYKASNLHTGVPSRFSGSGSGTGFTLTISSLQPEDIATYYCQQGQSFPFTFGSGTKLEIK VH: MAVLALLLCLVTFPSCALSQVQLKESGPGLVAPSQSLSITCTVSGFSLTNYAINWVRQPPGQGLEWLGIIWTGGGTSYNSALKSRLSISKDNSKSQVFLKMNSLQTDDTARYYCARTGTRGYFFDYWGQGTTLTVSS | specifically bound to CHO PDGF-R β transfectant cells but not to untransfected CHO cells | competitively blocked binding of PDGF BB to PDGF-R β; also recorded: did have the ability to block binding of PDGF BB to PDGF-R β | competed with equal efficiencies | 2.6e+08 M⁻¹ | completely inhibited proliferation of the cells induced by PDGF BB; also recorded: almost completely inhibited the stimulation of proliferation by PDGF BB | effectively inhibited the stimulation of proliferation by PDGF BB | none of muM4TS.11 and HuM4TS.11, muM4TS.22 and HuM4TS.22 bound to it | – | – |
| do not bind | do bind to protein D1-3 | bind to the protein D3 | – | – | HuM4TS.22: humanized muM4TS.22, human IC4 framework, gamma4 constant region; SEQ ID NOS:6 and 8 (antibody, V domains shown) VL: MRVLAELLGLLLFCFLGVRCDIQMTQSPSSLSASVGDRVTITCHASQNINVWLSWYQQKPGKAPKLLIYKASNLHTGVPSRFSGSGSGTGFTLTISSLQPEDIATYYCQQGQSFPFTFGGGTKVEIK VH: MAVLALLLCLVTFPSCALSQVQLQESGPGLVKPSETLSLTCTVSGFSLTNYAINWVRQPPGKGLEWLGIIWTGGGTSYNSALKSRLTISKDTSKNQVSLKLSSVTAADTAVYYCARTGTRGYFFDYWGQGTLVTVSS | – | reduced the binding of radiolabelled PDGF BB ligand to the PDGF-R β transfectant cells to the non-specific level; also recorded: did have the ability to block binding of PDGF BB to PDGF-R β | competed with equal efficiencies | 4e+08 M⁻¹ | almost completely inhibited the stimulation of proliferation by PDGF BB | – | none of muM4TS.11 and HuM4TS.11, muM4TS.22 and HuM4TS.22 bound to it | stained the transfectant cells but did not stain untransfected Sp2/0 cells at all | about equally as well as muM4TS.22 |
| – | – | – | do not bind | do bind to protein D1-4 | HuM4TS.11: humanized muM4TS.11, human III-2R framework, gamma4 constant region; SEQ ID NOS:14 and 16 (antibody, V domains shown) VL: METDTLLLWVLLLWVPGSTGDIQMTQSPSSLSASVGDRVTITCRASESVDSYGNSFMHWYQQKPGKAPKLLIYRASNLESGIPSRFSGSGSRTDFTLTISSLQPEDVATYYCQQSNEDPPTFGQGTKVEIK VH: MGWSWIFLFLLSGTAGVHSQVQLVQSGAEVKKPGASVKVSCKASGYTFTNCWMHWVRQAPGQGLEWIGYINPTTGYSEYNQNFKDKATITADKSTSTAYMELSSLRSEDTAVYYCTSNYGHYDWFGNWGQGTLVT | – | neither muM4TS.11 nor HuM4TS.11 were able to inhibit binding of PDGF BB to its receptor | competed less well than muM4TS.11 | 3e+07 M⁻¹ | almost completely inhibited the stimulation of proliferation by PDGF BB | – | none of muM4TS.11 and HuM4TS.11, muM4TS.22 and HuM4TS.22 bound to it | stained the transfectant cells but did not stain untransfected Sp2/0 cells at all | nearly as well as muM4TS.11; also recorded: about equally well |
